Test results published in the PETadex activity labels.

B1: unnamed (protein)
chain: MIHHFSVRALLAAGALLASAAVSAQTNPYERGPAPTTSSLEASRGPFSYQSFTVSRPSGYGAGTVYYPTNAGGPVGAIAIVPGFTARQSSINWWGPRLASHGFVVITIDTNSTLDQPDSRSRQQMAALNQVATLSRTSSSPIYNKVDTSRLGVMGWSMGGGGSLISARDNPSLKAAAPQAPWSSSKNFSSVTVPTLIIACENDSIAPVNQHADPFYDSMSRNPREFLEINGGSHSCANSGNSNQPLLGKKGVAWMKRFIDNDTRYTSFACSNPNSTRVSDFRVAACN
B2: unnamed (protein)
chain: MKTNRRRRLALAAAALLLSVAAQAQNGSAPPGPDPDPDPNPPESDNPYQRGPDPTAASLEASSGPFAVSTTTVSSASGFGGGTIYYPTNTEGPFAAIAVVPGFVGTESSIDWWGPRLASHGFVVITIDTNSVFDQPDSRATQLMAALDYVISQSNTSSSPISGMVDSNRLGVMGHSMGGGGSLIAARDNPTLKAAIPLAPWNSSTNFSAITVPTLIIACENDTVAPVSSHASPFYNSIPSSTDKAFLEINGGDHFCANSGNSNKDILGKYGVAWMKRFLDNDTRYDPFLCGPNHEADGSAISEYRDTCPY
B3: unnamed (protein)
chain: MKTKRHRTATTTVPLPKRSRLARLALAAALLLLSFAAQAQVVIFQENFNSGLGQFTASGTVSTSSGGARMQGCYGCTDGAITSSPISTVGFTNLSLSFDRTTTGLDSGEAGIAEYSTNGSTWTVIESTQSTSSGRVTIALPAAAAGQAALRLRFRVNASLSSETYTVDNIQLEGTPGGGPGGNPYQRGPDPTAALLEASTGPFTYATTTVSSTAASGYGGGTIYYPTNTAGPFAAIAVCPGYTATQSSISWWGPRLASHGFVVITIDTNSTSDQPSSRATQLMAALNQLVTFSNTSGHPIYGKVDPNRLGVMGHSMGGGGTLIAARDNPTLKAAIPLAPWNSSTNFSGVTVPTLIVACESDTIAPVSSHALPFYNSIPSSTKKAYLEINNGDHFCVTTGNSYKAILGKYGVAWMKRFLDNDTRYSPFLCGAPHQADLSGSAISEYRDNCPY
B4: unnamed (protein)
chain: MKTTTFKKSALSALTLLFSLSAFSGGGGGDDGNNDQLPAPDTCNSNCGYEIGPNPTLSFLEASQGPLSVSTTNVSSSVDGFGGGTIYYPTNTSQEMAAIAVAPGFTNTQSAIQWWGPILASHGFVVITIDTNGRFDQPESRSRQLDAALSYLISEGNRSSSPISGLVDENRLATMGFSMGGGGTLRSASRNRLSAAVPLAPWNTGGNNFDQIGVPTLIFACENDSTARVNSHASPFYNRIPSSTDKAYLEINNGPHNCANGNNSSNNALLSTYGVSWMKRFLDKDSRYNQFLCGPNHEANSRISEYRDTCNY
B5: unnamed (protein)
chain: MRPSSSSLHTAVPLRPRSRAMTALIALATTLGLALALLTAAAPPAAAADLLSQGRPATSSSTENTSTPASAAVDGNTGTRWSSTFSDPQWLSVDLGATATISQVVLRWETAYARAFQIQTSTNGTAWTTVHSSTSGTGGVQTLDVNGNGRYVRMLGTQRGTTYGYSLFEFQVYGSGGGTPPGNGIPDPTATSLETANGPLTTANYTVPNPSGYGSGTVTYPTSSGSYPSVVLMPGYQGTQQNLQWLAPRLASWGFVVVNVGTNTLTDDPESRGRQISAAGTQLLALGNAAGNPLSGKVNGTLGAVGHSMGGGGVMAALRDDSRFRAGVPTAPYHPNANFSSVTEPTFFLTCQSDSVAHGNTYAVPWYNSMSQAEKLYIEVPGDHLCPMTGSGNKAKQGKWIVSFLSLWLRADTRFGPFLCGPVRDPDKNNTSLVTRWMDTCAF
B6: unnamed (protein)
chain: MKSFVKMCVGCVLALVMLAGISSADYRRGPNPSDSMLEARTGPFDFERSTVSRLSAGGYGGGTLFYPTNTNEGPFAGIVVCPGYMESDGQVDWWGPRLASNGFVVFVMQPQNTYMNQPSQRGNQMLDALDDLVSWNNSRNHAIYGLLDPNRLGLMGHSMGGGGTLIAAEDEANNPAVKAAIPLAPYALEKDFSRITCPTMIVACGADMIAPVAQHAMPFYRSLSDSIDKMFIEFAGDSHFCVIDGNMHMPTLGKLGIAWMKVFMDEDARYLTFLNDTNYGATMEVSRFQSNRPYSVPGGGTSGDCQQWTSSNDQHVSAGRAYTQQETVGCDTVTTYYAVGSNMSIGTSGYSSTTLHSSDGGNSYYTGSCP
B7: unnamed (protein)
chain: MRDPPEYGTQTLHYPTDADPPFAAIAIVPGFVSPESSIIEWGPFLASHGIVVLTIGTNSGSDSPEIRSTALLAALETIKSEHARAGSPIEGKIDTTRLAVGGWSMGGGGTLLTITAHPELKAGLAICPWYTNAFAFAGNTVPVIMFAGTADVLAGGMSQGFYDAIPASTPKMLFEIAGADHFYANNPLMPNVQVGLYGLSWLKVFLEGDDRYRQFLLGPPQNASDFRTTVQ

The proteins below were run on BHET. Conditions: 120 h.

Question: For B1, which plate clearing is on record?
Answer: not clears the plate

Question: How did the plate clearing turn out when B2 was run?
Answer: not clears the plate

Question: Which plate clearing does the source give for B3 here?
Answer: clears the plate (z > 3 vs empty vector)

Question: B4 was tested. Which plate clearing did it give?
Answer: not clears the plate

Question: Which plate clearing does the source give for B5 here?
Answer: not clears the plate

Question: Which plate clearing does the source give for B6 here?
Answer: not clears the plate

Question: With B7 as the protein, how does the plate clearing read?
Answer: not clears the plate
